Values of other authors, collected in publication PMC8773166.

Target: calmodulin (UniProt P0DP23)

Kd: 0.2 µM
Substance: NCX1 XIP peptide XIP (from UniProt P32418)
